Here are results for seven sequences from the supplement of paper PMC11316812.

± gives the standard deviation of the averaged measurements.

For one data set, the system named is MCF7. Kind of data set: percentage of EdU-negative (G0-arrested) nuclei per well, 72 h; higher = more G0 arrest. The following applies: reference: sequence is the full UniProt precursor, the tested protein was the secreted form or ectodomain.
The next data set has as its system hTERT-HMEC. Described as above. As to conditions: reference: sequence is the full UniProt precursor, the tested protein was the secreted form or ectodomain.
The mark [1] stands for this setting: protein concentration 0.0111429 µM.
[2] abbreviates: protein concentration 0.111429 µM.
Where [3] appears, read: protein concentration 0.0225 µM.
[4] abbreviates: protein concentration 0.01475 µM.
[5] abbreviates: protein concentration 0.1475 µM.
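Also: secreted proteins added to cultured cells, EdU pulse at the end, nuclei found by Hoechst imaging, EdU status from nuclear versus surrounding ring intensity ratio, PBS as neutral control.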

Consider “MRKELQLSLSVTLLLVCGFLYQFTLKSSCLFCLPSFKSHQGLEALLSHRRGIVFLETSERMEPPHLVSCSVESAAKIYPEWPVVFFMKGLTDSTPMPSNSTYPAFSFLSAIDNVFLFPLDMKRLLEDTPLFSWYNQINASAERNWLHISSDASRLAIIWKYGGIYMDTDVISIRPIPEENFLAAQASRYSSNGIFGFLPHHPFLWECMENFVEHYNSAIWGNQGPELMTRMLRVWCKLEDFQEVSDLRCLNISFLHPQRFYPISYREWRRYYEVWDTEPSFNVSYALHLWNHMNQEGRAVIRGSNTLVENLYRKHCPRTYRDLIKGPEGSVTGELGPGNK [Q9UNA3]”, for which the “percentage of EdU-negative” value in the data set with MCF7 (setting [1]) came to 26.4 ± 0.46%; in the data set on MCF7 (setting [2]), 27.4 ± 2.4%; in the data set on hTERT-HMEC (setting [1]), 4.541 ± 0.041%; in the data set with hTERT-HMEC (setting [2]), 5.48 ± 1.1%.
Consider “MRKFAYCKVVLATSLIWVLLDMFLLLYFSECNKCDEKKERGLPAGDVLEPVQKPHEGPGEMGKPVVIPKEDQEKMKEMFKINQFNLMASEMIALNRSLPDVRLEGCKTKVYPDNLPTTSVVIVFHNEAWSTLLRTVHSVINRSPRHMIEEIVLVDDASERDFLKRPLESYVKKLKVPVHVIRMEQRSGLIRARLKGAAVSKGQVITFLDAHCECTVGWLEPLLARIKHDRRTVVCPIIDVISDDTFEYMAGSDMTYGGFNWKLNFRWYPVPQREMDRRKGDRTLPVRTPTMAGGLFSIDRDYFQEIGTYDAGMDIWGGENLEISFRIWQCGGTLEIVTCSHVGHVFRKATPYTFPGGTGQIINKNNRRLAEVWMDEFKNFFYIISPGVTKVDYGDISSRVGLRHKLQCKPFSWYLENIYPDSQIPRHYFSLGEIRNVETNQCLDNMARKENEKVGIFNCHGMGGNQVFSYTANKEIRTDDLCLDVSKLNGPVTMLKCHHLKGNQLWEYDPVKLTLQHVNSNQCLDKATEEDSQVPSIRDCNGSRSQQWLLRNVTLPEIF”, for which the “percentage of EdU-negative” value in the data set on MCF7 (setting [3]) was found to be 25.1 ± 1%; in the data set with MCF7 (protein concentration 0.225 µM), 23.6 ± 2.5%; in the data set on hTERT-HMEC (setting [3]) it was 4.8 ± 0.5%; with hTERT-HMEC (protein concentration 0.225 µM), 5.577 ± 0.015%.
As for “MRKMNTLLLVSLSFLYLKEVMGLKCNTCIYTEGWKCMAGRGTCIAKENELCSTTAYFRGDKHMYSTHMCKYKCREEESSKRGLLRVTLCCDRNFCNVF [P0C8F1]”, the “percentage of EdU-negative” value in the data set on MCF7 (setting [3]) worked out at 24.7 ± 1.3%; in the data set with MCF7 (protein concentration 0.225 µM) it was 27.4 ± 0.56%; in the data set on hTERT-HMEC (setting [3]), 4.34 ± 0.4%; in the data set with hTERT-HMEC (protein concentration 0.225 µM), 7.87 ± 1.3%.
“MRLAGPLRIVVLVVSVGVTWIVVSILLGGPGSGFPRIQQLFTSPESSVTAAPRARKYKCGLPQPCPEEHLAFRVVSGAANVIGPKICLEDKMLMSSVKDNVGRGLNIALVNGVSGELIEARAFDMWAGDVNDLLKFIRPLHEGTLVFVASYDDPATKMNEETRKLFSELGSRNAKELAFRDSWVFVGAKGVQNKSPFEQHVKNSKHSNKYEGWPEALEMEGCIPRRSTAS”: the “percentage of EdU-negative” value is 24.6 ± 1.1% in the data set with MCF7 (setting [3]), 25.8 ± 2.3% in the data set with MCF7 (protein concentration 0.225 µM), 5.06 ± 0.4% with hTERT-HMEC (setting [3]) and 6.75 ± 0.34% with hTERT-HMEC (protein concentration 0.225 µM).
Consider “MRLAVLFSGALLGLLAAQGTGNDCPHKKSATLLPSFTVTPTVTESTGTTSHRTTKSHKTTTHRTTTTGTTSHGPTTATHNPTTTSHGNVTVHPTSNSTATSQGPSTATHSPATTSHGNATVHPTSNSTATSPGFTSSAHPEPPPPSPSPSPTSKETIGDYTWTNGSQPCVHLQAQIQIRVMYTTQGGGEAWGISVLNPNKTKVQGSCEGAHPHLLLSFPYGHLSFGFMQDLQQKVVYLSYMAVEYNVSFPHAAQWTFSAQNASLRDLQAPLGQSFSCSNSSIILSPAVHLDLLSLRLQAAQLPHTGVFGQSFSCPSDRSILLPLIIGLILLGLLALVLIAFCIIRRRPSAYQAL”, for which the “percentage of EdU-negative” value is 25.5 ± 1.1% with MCF7 (setting [3]), 26.5 ± 0.42% with MCF7 (protein concentration 0.225 µM), 4.81 ± 0.13% in the data set with hTERT-HMEC (setting [3]) and 7.36 ± 0.68% in the data set with hTERT-HMEC (protein concentration 0.225 µM).
“MRLGSPGLLFLLFSSLRADTQEKEVRAMVGSDVELSCACPEGSRFDLNDVYVYWQTSESKTVVTYHIPQNSSLENVDSRYRNRALMSPAGMLRGDFSLRLFNVTPQDEQKFHCLVLSQSLGFQEVLSVEVTLHVAANFSVPVVSAPHSPSQDELTFTCTSINGYPRPNVYWINKTDNSLLDQALQNDTVFLNMRGLYDVVSVLRIARTPSVNIGCCIENVLLQQNLTVGSQTGNDIGERDKITENPVSTGEKNAATWSILAVLCLLVVVAVAIGWVCRDRCLQHSYAGAWAVSPETELTGHV”: the “percentage of EdU-negative” value came out at 27.1 ± 2.8% in the data set on MCF7 (setting [3]), 25.8 ± 2.6% in the data set with MCF7 (protein concentration 0.225 µM), 5.11 ± 0.35% in the data set on hTERT-HMEC (setting [3]) and 6.86 ± 0.54% with hTERT-HMEC (protein concentration 0.225 µM).
Take “MRLHLLLLLALCGAGTTAAELSYSLRGNWSICNGNGSLELPGAVPGCVHSALFQQGLIQDSYYRFNDLNYRWVSLDNWTYSKEFKIPFEISKWQKVNLILEGVDTVSKILFNEVTIGETDNMFNRYSFDITNVVRDVNSIELRFQSAVLYAAQQSKAHTRYQVPPDCPPLVQKGECHVNFVRKEQCSFSWDWGPSFPTQGIWKDVRIEAYNICHLNYFTFSPIYDKSAQEWNLEIESTFDVVSSKPVGGQVIVAIPKLQTQQTYSIELQPGKRIVELFVNISKNITVETWWPHGHGNQTGYNMTVLFELDGGLNIEKSAKVYFRTVELIEEPIKGSPGLSFYFKINGFPIFLKGSNWIPADSFQDRVTSELLRLLLQSVVDANMNTLRVWGGGIYEQDEFYELCDELGIMVWQDFMFACALYPTDQGFLDSVTAEVAYQIKRLKSHPSIIIWSGNNENEEALMMNWYHISFTDRPIYIKDYVTLYVKNIRELVLAGDKSRPFITSSPTNGAETVAEAWVSQNPNSNYFGDVHFYDYISDCWNWKVFPKARFASEYGYQSWPSFSTLEKVSSTEDWSFNSKFSLHRQHHEGGNKQMLYQAGLHFKLPQSTDPLRTFKDTIYLTQVMQAQCVKTETEFYRRSRSEIVDQQGHTMGALYWQLNDIWQAPSWASLEYGGKWKMLHYFAQNFFAPLLPVGFENENTFYIYGVSDLHSDYSMTLSVRVHTWSSLEPVCSRVTERFVMKGGEAVCLYEEPVSELLRRCGNCTRESCVVSFYLSADHELLSPTNYHFLSSPKEAVGLCKAQITAIISQQGDIFVFDLETSAVAPFVWLDVGSIPGRFSDNGFLMTEKTRTILFYPWEPTSKNELEQSFHVTSLTDIY”: the “percentage of EdU-negative” value came out at 25.3 ± 0.54% with MCF7 (setting [4]), 28.1 ± 0.47% with MCF7 (setting [5]), 5.29 ± 0.2% with hTERT-HMEC (setting [4]) and 5.9 ± 0.22% in the data set with hTERT-HMEC (setting [5]).
